Non-standard residues stand in square brackets, D forms with d. No end group written: not given here. Lys(N3) = [N-]=[N+]=NCCCC[C@H](N)C(=O)O; Aib = CC(C)(N)C(=O)O
Legend:
[1] = target: human Glucagon receptor (GCGR) (human, UniProt P47871 26-477); assay: cell-based or functional assay
[2] = target: human GLP-1 receptor (GLP1R) (human, UniProt P43220 24-463); assay: cell-based or functional assay
human GLP-1 receptor (GLP1R), sequence (P43220 24-463): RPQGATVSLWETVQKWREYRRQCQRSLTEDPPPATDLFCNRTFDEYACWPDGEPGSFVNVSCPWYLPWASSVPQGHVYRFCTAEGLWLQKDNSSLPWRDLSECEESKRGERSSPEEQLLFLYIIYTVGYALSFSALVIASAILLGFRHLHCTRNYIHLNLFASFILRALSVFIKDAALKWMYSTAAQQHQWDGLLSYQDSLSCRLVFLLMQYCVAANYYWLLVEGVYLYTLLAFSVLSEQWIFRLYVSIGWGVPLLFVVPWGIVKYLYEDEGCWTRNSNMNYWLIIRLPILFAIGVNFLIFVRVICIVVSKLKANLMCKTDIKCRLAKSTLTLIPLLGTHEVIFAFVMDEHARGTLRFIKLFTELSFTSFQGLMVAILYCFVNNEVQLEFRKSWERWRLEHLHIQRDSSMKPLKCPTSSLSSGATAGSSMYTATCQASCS

Row | Binder | hGCGR_EC50 (nM), cAMP activity assay [1] [nM] | hGLP1R EC50 (nM), cAMP activity assay [2] [nM]
1 | HXQGTFTSDKSKYLDERAAQDFVXWLLDT (D-Ser (s) at 2; Nle(εN3) at 24; C-terminal amide) [PEP88] | 0.093 | 0.09
2 | H[Aib]QGTFTSDKSKYLD[Aib]RAAQDFVQWLMNTKQ[Lys(N3)]-NH2 [PEP89] | 3.9 | 0.044
3 | HXQGTFTSDKSKYLDERAAQDFVXWLLDT (D-Ser (s) at 2; K(γEγEC16) at 10; Nle(εN3) at 24; C-terminal amide) [PEP87] | 0.019 | 

Source: US20190192675A1 (Merck Sharp & Dohme, published 2019)
